Measured values: US20030166021A1

Molecular target: c-Myc (human) (UniProt P01106)
Assay: cell-based or functional assay

Sequence of c-Myc (human) (P01106 16-454 limits assumed): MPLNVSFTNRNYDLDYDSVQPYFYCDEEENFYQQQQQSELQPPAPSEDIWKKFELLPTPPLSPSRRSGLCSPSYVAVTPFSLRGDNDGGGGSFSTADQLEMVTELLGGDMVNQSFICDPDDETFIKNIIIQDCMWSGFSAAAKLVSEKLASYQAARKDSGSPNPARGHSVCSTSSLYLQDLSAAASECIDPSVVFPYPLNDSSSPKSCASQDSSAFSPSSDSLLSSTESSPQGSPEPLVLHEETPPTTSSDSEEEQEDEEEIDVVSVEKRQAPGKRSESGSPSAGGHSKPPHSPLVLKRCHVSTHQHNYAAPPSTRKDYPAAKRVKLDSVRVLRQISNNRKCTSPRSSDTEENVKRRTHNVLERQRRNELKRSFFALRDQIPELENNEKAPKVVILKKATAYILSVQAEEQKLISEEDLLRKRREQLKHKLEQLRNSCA

focus formation in the Ras cooperation assay (myc + ras, rat embryo fibroblasts) [fold]	focus formation in the Ras cooperation assay (MYC + RAS, rat embryo fibroblasts) [fold]	fold decrease in focus formation by MYC (MYC + activated RAS, rat embryo fibroblasts) [fold]	Substance
2.4	–	–	ATG99 polypeptide (murine clone #99 ORF with initiator methionine, vector neoCMV-ATG99) (from UniProt O08539 310-565)
–	7	6	human Bin1 (Box-dependent Myc-Interacting protein-1), full-length 451 amino acid product of cDNA p99f (from UniProt O00499 9-593)
